The nature of the series: self-splicing fitness, log relative to wild type (ln ratio); higher = more splicing; Tetrahymena group I intron in knt gene, E. coli kanamycin selection, DiMSum; sequences stand for … in CUCUCU…GGAGGGAAAAGUUAUCAGGCAUGCACCUGGUAGCUAGUCUUUAAACCAAUAGAUUGCAUCGGUUUAAAAGGCAAGACCGUCAAAUUGCGGGAAAGGGGUCAACAGCCGUUCAGUACCAAGUCUCAGGGGAAACUUUGAGAUGGCCUUGCAAAGGGUAUGGUAAUAAGCUGACGGACAUGGUCCUAACCACGCAGCCAAGUCCUAAGUCAACAGAUCUUCUGUUGAUAUGGAUGCAGUUCACAGACUAAAUGUCGGUCGGGGAAGAUGUAUUCUUCUCAUAAGAUAUAGUCGGACCUCUCCUUAAUGGGAGCUAGCGGAUGAAGUGAUGCAACACUGGAGCCGCUGGGAACUAAUUUGUAUGCGAAAGUAUAUUGAUUAGUUUUGGAGUACUCGUGGUCG
A digest of the protocol:
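The eight P1ex-region nucleotides of an intron in the knt kanamycin-resistance gene on pET-22b(+) were all randomised and the library put into E. coli BL21(DE3). Six replicate transformations were grown overnight at 37°C or 30°C on LB agar with or without 25 μg/mL kanamycin, together with 100 μg/mL carbenicillin, 50 μM IPTG and 0.2% rhamnose. Colonies were pooled and amplicon-sequenced on an Illumina HiSeq 2500. Fitness from DiMSum is the error-weighted combination of wild-type-normalised replicate fold changes, kanamycin over none.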

± gives the uncertainty stated by the source.

AUAAAGCAAUAUUACGCCUC: the “self-splicing fitness (ln)” value was -0.875 ± 0.14 (30 °C) and -0.532 ± 0.2 (37 °C).

With UGUUAGCAAUAUUACGCCGC, the “self-splicing fitness (ln)” value (30 °C) was -3.34 ± 0.45.

Take GUGAAGCAAUAUUACGAGCC: the “self-splicing fitness (ln)” value (37 °C) was -2.76 ± 0.48.

For the sequence UGUUAGCAAUAUUACGUCGG, the “self-splicing fitness (ln)” value was -0.97 ± 0.1 (30 °C) and -0.8 ± 0.17 (37 °C).

In the case of AAGCAGCAAUAUUACGGGAU, the “self-splicing fitness (ln)” value reads like this: (30 °C) -3.63 ± 0.14; (37 °C) -1.92 ± 0.1.

Turning to UGAAAGCAAUAUUACGAUCU, the “self-splicing fitness (ln)” value is, setting by setting: (30 °C) -0.256 ± 0.083; (37 °C) 0.425 ± 0.11.

For CGGAAGCAAUAUUACGUGCG, the “self-splicing fitness (ln)” value was -1.64 ± 0.095 (30 °C) and -1.05 ± 0.14 (37 °C).

Turning to AAACAGCAAUAUUACGACAG, the “self-splicing fitness (ln)” value by setting is: (30 °C) -1.5 ± 0.082; (37 °C) -1.25 ± 0.1.

In the case of AACGAGCAAUAUUACGCAAU, the “self-splicing fitness (ln)” value is -4.26 ± 0.36 (30 °C) and -2.45 ± 0.27 (37 °C).

Regarding ACUAAGCAAUAUUACGCUUU, the “self-splicing fitness (ln)” value was -2.34 ± 0.17 (30 °C) and -1.97 ± 0.18 (37 °C).

As for AGUUAGCAAUAUUACGGCUU, the “self-splicing fitness (ln)” value (30 °C) was -2.22 ± 0.23 and the “self-splicing fitness (ln)” value (37 °C) was -1.04 ± 0.22.

As for AAAUAGCAAUAUUACGUAGU, the “self-splicing fitness (ln)” value (30 °C) is -3.11 ± 0.099 and the “self-splicing fitness (ln)” value (37 °C) is -1.79 ± 0.095.

Take AUUGAGCAAUAUUACGGCAC: the “self-splicing fitness (ln)” value (30 °C) is -3.48 ± 0.37 and the “self-splicing fitness (ln)” value (37 °C) is -0.518 ± 0.33.

Regarding GGACAGCAAUAUUACGAAUC, the “self-splicing fitness (ln)” value reads like this: (30 °C) -0.0402 ± 0.12; (37 °C) 0.32 ± 0.17.

Take AUCUAGCAAUAUUACGAUCA: the “self-splicing fitness (ln)” value (30 °C) is -1.92 ± 0.14 and the “self-splicing fitness (ln)” value (37 °C) is -0.116 ± 0.18.

With CGAUAGCAAUAUUACGCUAU, the “self-splicing fitness (ln)” value (30 °C) was -2.82 ± 0.19.

With CUCUAGCAAUAUUACGCGGU, the “self-splicing fitness (ln)” value by setting is: (30 °C) -3.25 ± 0.26; (37 °C) -2.59 ± 0.29.

As for GAUUAGCAAUAUUACGAAAG, the “self-splicing fitness (ln)” value (30 °C) was -2.38 ± 0.25 and the “self-splicing fitness (ln)” value (37 °C) is -0.574 ± 0.23.

For CCUCAGCAAUAUUACGGACC, the “self-splicing fitness (ln)” value (37 °C) was -3.01 ± 0.31.

With UGUCAGCAAUAUUACGCCUC, for the setting “30 °C”, the “self-splicing fitness (ln)” value is -2.62 ± 0.42.

As for UGCGAGCAAUAUUACGGUGG, the “self-splicing fitness (ln)” value was -3.04 ± 0.23 (30 °C) and -3.1 ± 0.33 (37 °C).

For UCAGAGCAAUAUUACGGUAU, the “self-splicing fitness (ln)” value was -2.79 ± 0.2 (30 °C) and -3.2 ± 0.44 (37 °C).

Turning to AUUCAGCAAUAUUACGAACA, the “self-splicing fitness (ln)” value is -0.36 ± 0.099 (30 °C) and -0.341 ± 0.11 (37 °C).

Regarding CGCUAGCAAUAUUACGUUAG, the “self-splicing fitness (ln)” value is -3.47 ± 0.18 (30 °C) and -2.89 ± 0.24 (37 °C).

Consider GUCGAGCAAUAUUACGGGUC, for which, for the setting “30 °C”, the “self-splicing fitness (ln)” value is -2.68 ± 0.39.

In the case of CCCAAGCAAUAUUACGUUUG, the “self-splicing fitness (ln)” value by setting is: (30 °C) -4.1 ± 0.21; (37 °C) -2.82 ± 0.21.

For AGUUAGCAAUAUUACGGCGA, the “self-splicing fitness (ln)” value runs as follows: (30 °C) 0.115 ± 0.16; (37 °C) 0.709 ± 0.16.

Regarding CGGAAGCAAUAUUACGUGAC, the “self-splicing fitness (ln)” value (30 °C) was -1.6 ± 0.16 and the “self-splicing fitness (ln)” value (37 °C) is -2.12 ± 0.35.

GACUAGCAAUAUUACGGGCU: the “self-splicing fitness (ln)” value runs as follows: (30 °C) -2.18 ± 0.15; (37 °C) -1.64 ± 0.15.

UUUGAGCAAUAUUACGGGCU: the “self-splicing fitness (ln)” value reads like this: (30 °C) -2.89 ± 0.34; (37 °C) -2.86 ± 0.41.

On to GCCAAGCAAUAUUACGACAG, for which the “self-splicing fitness (ln)” value (30 °C) was -3.63 ± 0.2 and the “self-splicing fitness (ln)” value (37 °C) is -3.8 ± 0.39.

For the sequence UUUGAGCAAUAUUACGUACC, the “self-splicing fitness (ln)” value (30 °C) is -2.34 ± 0.44 and the “self-splicing fitness (ln)” value (37 °C) is -2.3 ± 0.42.

Turning to GCCAAGCAAUAUUACGGACC, the “self-splicing fitness (ln)” value is -3.32 ± 0.15 (30 °C) and -0.612 ± 0.13 (37 °C).

With GCUCAGCAAUAUUACGGGCU, the “self-splicing fitness (ln)” value was -4.72 ± 0.38 (30 °C) and -2.63 ± 0.21 (37 °C).

With AGGCAGCAAUAUUACGAUUG, the “self-splicing fitness (ln)” value runs as follows: (30 °C) -3.13 ± 0.17; (37 °C) -2.4 ± 0.22.

Take CUUGAGCAAUAUUACGGAAG: the “self-splicing fitness (ln)” value is -2.62 ± 0.25 (30 °C) and -2.23 ± 0.28 (37 °C).

For AACUAGCAAUAUUACGCCUG, the “self-splicing fitness (ln)” value is, setting by setting: (30 °C) -1.08 ± 0.12; (37 °C) -1.43 ± 0.13.

As to GUGCAGCAAUAUUACGUUGG, the “self-splicing fitness (ln)” value by setting is: (30 °C) -2.58 ± 0.084; (37 °C) -1.56 ± 0.097.

With GAGCAGCAAUAUUACGUACA, the “self-splicing fitness (ln)” value is -1.06 ± 0.22 (30 °C) and -0.116 ± 0.17 (37 °C).

For the sequence GUACAGCAAUAUUACGUAGG, the “self-splicing fitness (ln)” value (30 °C) was -2.79 ± 0.15 and the “self-splicing fitness (ln)” value (37 °C) was -0.471 ± 0.12.

On to UGGCAGCAAUAUUACGUUAU, for which the “self-splicing fitness (ln)” value (30 °C) is -2.25 ± 0.11 and the “self-splicing fitness (ln)” value (37 °C) is -1.91 ± 0.16.

With ACGUAGCAAUAUUACGACUA, the “self-splicing fitness (ln)” value (30 °C) is -0.558 ± 0.15 and the “self-splicing fitness (ln)” value (37 °C) is 0.529 ± 0.18.

On to AGUAAGCAAUAUUACGCACC, for which the “self-splicing fitness (ln)” value (30 °C) was -0.949 ± 0.24 and the “self-splicing fitness (ln)” value (37 °C) is -0.969 ± 0.25.

For the sequence CUGGAGCAAUAUUACGUCAA, the “self-splicing fitness (ln)” value was -2.69 ± 0.44 (30 °C) and -1.19 ± 0.47 (37 °C).

Consider CGCCAGCAAUAUUACGCCAC, for which the “self-splicing fitness (ln)” value (37 °C) is -1.48 ± 0.2.

Take AUCAAGCAAUAUUACGAAUA: the “self-splicing fitness (ln)” value was -2.36 ± 0.21 (30 °C) and -1.44 ± 0.17 (37 °C).

As for AUGCAGCAAUAUUACGUCCC, the “self-splicing fitness (ln)” value (30 °C) is -1.53 ± 0.42.

Consider CUGAAGCAAUAUUACGCGUA, for which the “self-splicing fitness (ln)” value was -4.36 ± 0.36 (30 °C) and -1.98 ± 0.26 (37 °C).

UCUGAGCAAUAUUACGCACA: for the setting “37 °C”, the “self-splicing fitness (ln)” value is -1.23 ± 0.49.

Turning to UGAAAGCAAUAUUACGAGUG, the “self-splicing fitness (ln)” value runs as follows: (30 °C) -0.522 ± 0.069; (37 °C) 0.0623 ± 0.11.

For the sequence GGGAAGCAAUAUUACGCCAG, the “self-splicing fitness (ln)” value (30 °C) is -3.13 ± 0.36.

Turning to ACGAAGCAAUAUUACGAUUG, the “self-splicing fitness (ln)” value (30 °C) is -2.46 ± 0.14 and the “self-splicing fitness (ln)” value (37 °C) was -0.909 ± 0.15.

On to UUUCAGCAAUAUUACGUUCA, for which the “self-splicing fitness (ln)” value is -1.04 ± 0.13 (30 °C) and -0.407 ± 0.15 (37 °C).

For the sequence CCUGAGCAAUAUUACGUGUG, the “self-splicing fitness (ln)” value was -1.62 ± 0.058 (30 °C) and -1.18 ± 0.066 (37 °C).

Turning to UGGCAGCAAUAUUACGCGGC, the “self-splicing fitness (ln)” value is -4.17 ± 0.29 (30 °C) and -2.23 ± 0.26 (37 °C).

For the sequence CUAGAGCAAUAUUACGGGCG, the “self-splicing fitness (ln)” value reads like this: (30 °C) 0.0237 ± 0.11; (37 °C) 0.638 ± 0.14.

Turning to UACCAGCAAUAUUACGUGAU, the “self-splicing fitness (ln)” value is -1.93 ± 0.063 (30 °C) and -1.41 ± 0.074 (37 °C).

For ACAGAGCAAUAUUACGGGGG, the “self-splicing fitness (ln)” value was -3.7 ± 0.19 (30 °C) and -2.31 ± 0.2 (37 °C).

As to AAGGAGCAAUAUUACGACCU, the “self-splicing fitness (ln)” value (30 °C) was -0.0623 ± 0.16 and the “self-splicing fitness (ln)” value (37 °C) was -0.475 ± 0.2.

Regarding GCGUAGCAAUAUUACGUCGA, the “self-splicing fitness (ln)” value is -2.69 ± 0.35 (30 °C) and -1.85 ± 0.32 (37 °C).

For ACUUAGCAAUAUUACGUCGU, the “self-splicing fitness (ln)” value by setting is: (30 °C) -1.99 ± 0.079; (37 °C) -1.28 ± 0.088.

AAAUAGCAAUAUUACGGAGA: the “self-splicing fitness (ln)” value (30 °C) is -1.86 ± 0.23 and the “self-splicing fitness (ln)” value (37 °C) was -2.11 ± 0.3.

Take CAAGAGCAAUAUUACGGAAA: the “self-splicing fitness (ln)” value by setting is: (30 °C) -2.9 ± 0.22; (37 °C) -2.82 ± 0.22.
